This is an account of results in the nanobody polyreactivity screen of Harvey et al. (2022).

The data set can be described thus: yeast display, Sf9 membrane polyspecificity reagent, FACS + sequencing; frameworks hold sequencing errors. The gist of the method:
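Nanobodies from a synthetic yeast display library (Saccharomyces cerevisiae BJ5465), induced 36–48 hours with galactose, were stained 1 hour at 4 °C with 10% biotinylated, detergent-solubilized Sf9 membrane reagent, enriched on streptavidin microbeads, then FACS-sorted. Anti-HA (expression) and streptavidin (reagent binding) fluorescence set low and high (top ~1%) gates. Polyreactivity labels come from the gate of origin. Genes were colony-PCR amplified, MiSeq 2 × 250 sequenced and filtered by CDR length.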
In the case of “QVQLVESGGGLVQAGGSLRLSCAASGRIFNANAMGWYRHAPGKERELVAAISSSGGSTYYADSVKGRFTISRDNAKNTVYLQMNSLNPEDTAVYYCNADWGWRYSSDFDYWGQGTQVTVSS”, the “polyreactivity (PSR sort gate)” value is “low polyreactivity”.
Turning to “QVQLVESGGGLVQAGGSLRLSCAASGRIFNAYAMGWYRQAPGKERELVAAISRSGGRTYYADSVKGRFTISRDNAKNNVYLQMNILKPEDTAVYYCAKDFFEHSPVSHTYSSSKYDYWGQGTQVTVSS”, the “polyreactivity (PSR sort gate)” value was “low polyreactivity”.
As for “QVQLVESGGGLVQAGGSLRLSCAASGRIFNEYGMGWYRQAPGKERELVAAITDGTTTYYADSVKGRFTISRDNAKNTVYLQMNSLKPEDTAVYYCAASSTWYGYYIFVFRAYDYWGQGTQVTVSS”, the entry is “low polyreactivity”; as for “QVQLVESGGGLVQAGGSLRLSCAASGRIFNFYAMGWYRQAPGKERELVASITGSTGSTYYADSVKGRFTISRDNAKNTVYLQMNSLKPEDTAVYYCNTYRVTRDYYWGQGTQVTVSS”, “low polyreactivity”.
Consider “QVQLVESGGGLVQAGGSLRLSCAASGRIFNFYAMGWYRQAPGKERELVASITSGGRTSYADSVKGRFTISRDNAKNTVYLQMNSLKPEDTAVYYCAAKSPLKTYYFTSFRYYYWGQGTQVTVSS”, for which the “polyreactivity (PSR sort gate)” value is recorded as “high polyreactivity”.
As to “QVQLVESGGGLVQAGGSLRLSCAASGRIFNGYAMGWYRQAPGKERELVASITSAGSTYFADSVTGRVTISRDNAKNTVYVQMNRLKPEDTAVYYCAADSYSVYYYTYDSWGQGTQVTVSS”, the “polyreactivity (PSR sort gate)” value was “low polyreactivity”.
“QVQLVESGGGLVQAGGSLRLSCAASGRIFNGYPIGWYIQAPGKEREFVATISRSGGCTYYADSVKGRFTISRDNAKNTVYLQMISLKPEDTAVYYCAKTYPAKWEYDYWGQGTQVTVSS”: the “polyreactivity (PSR sort gate)” value is recorded as “low polyreactivity”.
For the sequence “QVQLVESGGGLVQAGGSLRLSCAASGRIFNIYAMGWYRQAPGKERELVAAIRWNGGSTYYADSVKGRFTISRDNAKNTVYLQMNSLKPEDTAVYYCAARHPLYRVQHEYWGQGTQVTVSS”, the “polyreactivity (PSR sort gate)” value is on record as “low polyreactivity”.
Regarding “QVQLVESGGGLVQAGGSLRLSCAASGRIFNKNAMGWYRQPPGKEREFVAAISRSGGRTYYADSVKGRFTISRDNAKNTVYLQMNSLKPEDPAVYFCAAEYRGVPRVVVDYDYWGQGTQVTVSS”, the “polyreactivity (PSR sort gate)” value is “high polyreactivity”.
“QVQLVESGGGLVQAGGSLRLSCAASGRIFNLYAMGWYRQAPGKERELVAAIRGRGTSTYYADSVKGRFTISRDNAKNTVYLQMNSLKPEDTAVYYCATTSRELGELRIFDYWGQGTQVTVSS”: the “polyreactivity (PSR sort gate)” value is “low polyreactivity”.
For “QVQLVESGGGLVQAGGSLRLSCAASGRIFNLYAMGWYRQAPGKERELVAAISSGGSTYYADSVKGRFTISRDNAKNTVYLQMNSLKPEDTAVYYCAAKNGDRYARGYWGQGTQVTVSS”, the “polyreactivity (PSR sort gate)” value was “high polyreactivity”.
With “QVQLVESGGGLVQAGGSLRLSCAASGRIFNLYAMGWYRQAPGKERELVAAISWRGGSTYYADSVKGRFTISRDNAKNTVYLQMNSLKPEDTAVYYCAATFFTYVYRYYYWGQGTQVTVSS” the entry was “high polyreactivity”; with “QVQLVESGGGLVQAGGSLRLSCAASGRIFNNYAMGWYRQAPGKERELVASITSGGSTNYADSVKGRFTISRDNAKNTVYLHMNSLKPEDTAVYYCNAPRGNRYHTGGYWGQGTQVTVSS”, “low polyreactivity”; with “QVQLVESGGGLVQAGGSLRLSCAASGRIFNQYGMGWYRQAPGKERELVAAIRSGDSTNYADSVKGRFTISRDNAKNTVYLQMNSLKPVDTAVYYFNAYLSPKQPLSPPDPTFEGGYWGQGTQVTVSS”, “low polyreactivity”.
With “QVQLVESGGGLVQAGGSLRLSCAASGRIFNRNAMGWYRQAPGKERELVAAISSSGGSTYYADSVKGRFTISRDTAKNTVYLQMNSLKPEDTAVYYCAAVTQSYGYYYWGQGTQVTVSS”, the “polyreactivity (PSR sort gate)” value is reported as “high polyreactivity”.
In the case of “QVQLVESGGGLVQAGGSLRLSCAASGRIFNRNAMGWYRQAPGKERELVAAITRGGRTNYADSVKGRFTISRDNAQNTVYLHMNSLKPEDTAVYYCAAAYYGSHCRYDYWGQGTQVTVSS”, the “polyreactivity (PSR sort gate)” value is listed as “high polyreactivity”.
As for “QVQLVESGGGLVQAGGSLRLSCAASGRIFNRNAMGWYRQAPGKERELVATISFNDGSTYYADSVKGRFRISRDIAKNTVYLQMNSLKPEDTAVYYCAKEGYVFEYDYWGKGTQVTVSS”, the “polyreactivity (PSR sort gate)” value is listed as “low polyreactivity”.
As for “QVQLVESGGGLVQAGGSLRLSCAASGRIFNRYAMGWYRQAPGKERELVAAINYRGSSTYYADSVKGRFTISRDNAKNTGYLQMNSLKPEVTAVYYCKTYGQTDTYWRYYYWGQGTQVTVSS”, the entry is “high polyreactivity”; as for “QVQLVESGGGLVQAGGSLRLSCAASGRIFNRYAMGWYRQAPGKERELVAAISASGDNTYYADSVKGRFTISRDNAKKNVYLQMNSLKPEDTAVYYCAARYYTYLHFRMYYWGQGTQVTVSS”, “high polyreactivity”; as for “QVQLVESGGGLVQAGGSLRLSCAASGRIFNSYAMGCYRQAPGKERELVAAINWTDVSTYYADSVKGRFTISRDNAKNTVYLQMNSLKPEDTAVYYCAAVRWGSYTLSDDYWGQGTQVTVSS”, “low polyreactivity”.
With “QVQLVESGGGLVQAGGSLRLSCAASGRIFNWYGMGWYRQAPGKERELVATISSSGDSTYYADSVKGRFTISRDNAKNTVYLQMNSLKPEDTAVYYCAKRARYKFGYWGQGTQVTVSS”, the “polyreactivity (PSR sort gate)” value is reported as “high polyreactivity”.
As to “QVQLVESGGGLVQAGGSLRLSCAASGRIFNYNALGWYRQAPGKESELVATITYIGTGTYYADSVKGRFTISRDNAKTTVYLQMNSLKPEDTAVYYCAASYRSRVWWRFDYWGQGTQVTVSS”, the “polyreactivity (PSR sort gate)” value is on record as “high polyreactivity”.
With “QVQLVESGGGLVQAGGSLRLSCAASGRIFNYYAMGSYRQAPGKERDLVAAITSRGGSTYYADSVKGRFTISRDNAKNTVYLQMNSLNPEDTAVYYCNTRVWYPGTIHPVDYWGQGTQVTVSS”, the “polyreactivity (PSR sort gate)” value is listed as “low polyreactivity”.
As for “QVQLVESGGGLVQAGGSLRLSCAASGRIFNYYAMGWYRLAPGKERELVAAINSGGSTYADSVKGRFTISRDNAKNTVYLEMNSLKPEDTAVYYCANDGQLQSGRERPSGYDHWGQGTQVTVSS”, the entry is “low polyreactivity”; as for “QVQLVESGGGLVQAGGSLRLSCAASGRIFNYYAMGWYRQAPGKEMELVAVITYSAGRTYYADSVKGRFTISRDNAKNTVYLQMNSLKPEDTAVYYCNADGWVSVSKHYYYWGQGTQVTVSS”, “low polyreactivity”.
On to “QVQLVESGGGLVQAGGSLRLSCAASGRIFNYYAMGWYRQAPGKERELVAAINSGGSTYADSVKGRFTISRDNAKNTVYLQMNSLKPEDTAVYYCAKDGQLQSGRERPSGYDHWGQGTQVTVSS”, for which the “polyreactivity (PSR sort gate)” value is given as “low polyreactivity”.
As for “QVQLVESGGGLVQAGGSLRLSCAASGRIFNYYAMGWYRQAPGKERELVAAINWSGVRTYYADSVKGRFTISRDNAKNTVYLQMNSLKPEDTEVYYCARDAGAAYGYYSWGQGTQVTVSS”, the “polyreactivity (PSR sort gate)” value is “high polyreactivity”.
For the sequence “QVQLVESGGGLVQAGGSLRLSCAASGRIFNYYAMGWYRQAPGKERELVASITSRGGTTYYADSVKGRFTISRDKAKKTVYLQMNSLIPEDTAVYYCAAFTRPVSRRSRMNYWGQGTQVTVSS”, the “polyreactivity (PSR sort gate)” value is “high polyreactivity”.
Regarding “QVQLVESGGGLVQAGGSLRLSCAASGRIFPAYVMGWYRQAHGKERELVATIDNGGGTYYADSVKGRFTISRDNAKNTVYLQMNSLKPEDTAVYYCARDRHVRWGLKMDYSGQGTQVTVSS”, the “polyreactivity (PSR sort gate)” value is “low polyreactivity”.
On to “QVQLVESGGGLVQAGGSLRLSCAASGRIFPDNAMGWYRQAHGKERELVAVITYSGGSTYYADSVKGRFTISRDNAKNTVYLQMNSLKPEDTAVYYCAARDYYIWFAEVDYWGQGTQVTVSS”, for which the “polyreactivity (PSR sort gate)” value is “low polyreactivity”.
